In patent US20090004675A1, “Method of Identifying Compounds for Bacterial Growth Modulation” (priority 2004, published 2009):

Assays:
E. coli β clamp = E. coli β clamp (Escherichia coli, UniProt P0A988); conditions: E. coli β labeled with Oregon Green or rhodamine-labeled peptide; Kd only in FIG. 1A
From the text: The assays corresponding to the data in the Table of FIG. 1A, use E. coli β labeled with an Oregon Green fluorophore. Peptides of various polymerases were titrated into the labeled β, and the Kd values were obtained from the resulting fluorescent intensity changes. All other plots utilize rhodamine-labeled polymerase peptide from E. coli α (FIG. 1A), S. pyogenes Pol C (FIG. 1B), S. aureus Pol C (FIG. 1C). β clamp from the organisms indicated are titrated into the fluorescent peptide.
A rhodamine-labeled 20 mer peptide corresponds to the sequence of the C-terminal 20 residues of E. coli Pol III α subunit. […] A plot of the fluorescence change with beta concentration provides a Kd value for the interaction between these molecules (FIG. 1A).

S. pyogenes β = assay: Binding of rhodamine-labeled polymerase C-terminal peptides to β clamp; design: species or system Streptococcus pyogenes; conditions: β titrated in
Experimental: This assay has also been examined using Streptococcus pyogenes β and rhodamine labeled peptides corresponding to C-terminal residues of Streptococcus pyogenes Pol C and E. coli Pol III. […] The C-terminal peptide corresponding to Staphylococcus aureus Pol C was also tested for binding to these β clamps (FIG. 1C).

[1] = target: E. coli DNA polymerase III replicase (Escherichia coli, UniProt P0A988); conditions: primed M13mp18 ssDNA coated with SSB
Experimental: Assays were performed using primed M13mp18 ssDNA coated with SSB as substrate. Each reaction was 25 μl and contained 72 ng primed M13mp18 ssDNA, 1 μg SSB, 0.1 mM MgCl2, 20 mM TrisHCl (pH 7.5), 0.1 mM EDTA, 5 mM DTT, 40 μg/ml BSA, 4% glycerol, […], 2 mM ATP, 60 μM each of dCTP, dATP, dGTP and 20 μM α^32-P dTTP. Replicases consisted of the following for each E. coli, S. pyogenes, and S. aureus: 50 ng Pol III core (E. coli) or Pol C (S. pyogenes and S. aureus), 200 ng τ, 20 ng δδ′ and 40 ng β. Peptides, when present, were added to the indicated concentration. Reactions were assembled on ice in the absence of the polymerase, then shifted to 37° C. for 3 min before initiating synthesis by addition of the polymerase. Reactions were incubated a further 3 min prior to quenching and quantitation of synthesis.

[2] = test system: S. pyogenes PolC holoenzyme; assay: Replicase DNA synthesis assay on primed M13mp18 ssDNA, with peptides; type: biochemical, Streptococcus pyogenes; conditions: primed M13mp18 ssDNA coated with SSB
Experimental: (§1) Peptides, when present, were added to the indicated concentration.

[3] = target: T1, S. aureus Pol C holoenzyme (Staphylococcus aureus, UniProt P0A024); assay: as above; type: biochemical; conditions: primed M13mp18 ssDNA coated with SSB
T1 construct: made in house
T1 sequence (P0A024 1-377): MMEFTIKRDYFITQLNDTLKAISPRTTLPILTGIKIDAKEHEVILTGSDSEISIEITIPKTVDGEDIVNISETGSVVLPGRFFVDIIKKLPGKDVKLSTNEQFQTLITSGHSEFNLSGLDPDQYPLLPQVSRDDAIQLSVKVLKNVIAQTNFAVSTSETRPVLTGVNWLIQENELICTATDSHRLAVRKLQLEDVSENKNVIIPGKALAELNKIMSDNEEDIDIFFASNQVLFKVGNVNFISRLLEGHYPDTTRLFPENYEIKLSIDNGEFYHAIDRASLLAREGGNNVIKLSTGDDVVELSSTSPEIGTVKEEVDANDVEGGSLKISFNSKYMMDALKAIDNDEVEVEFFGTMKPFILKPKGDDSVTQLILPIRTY
Experimental: as §1

Sequence of E. coli β clamp (P0A988 whole entry): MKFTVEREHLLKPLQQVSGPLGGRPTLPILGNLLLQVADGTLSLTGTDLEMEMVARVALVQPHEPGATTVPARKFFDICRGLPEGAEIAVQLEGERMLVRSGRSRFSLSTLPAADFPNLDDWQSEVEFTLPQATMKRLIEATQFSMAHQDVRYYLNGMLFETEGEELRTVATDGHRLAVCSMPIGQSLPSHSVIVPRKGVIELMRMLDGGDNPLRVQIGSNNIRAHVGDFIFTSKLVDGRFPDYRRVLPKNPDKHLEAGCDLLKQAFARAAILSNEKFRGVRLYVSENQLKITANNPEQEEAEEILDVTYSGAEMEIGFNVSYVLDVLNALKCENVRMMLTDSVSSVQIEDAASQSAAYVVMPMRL
Sequence of E. coli DNA polymerase III replicase (P0A988 whole entry): as above

| Substance | binding of peptide to E. coli β clamp (E. coli β clamp) | binding of peptide to S. pyogenes β (S. pyogenes β) | inhibition of DNA synthesis by E. coli DNA polymerase III replicase [1] | inhibition of DNA synthesis by S. pyogenes PolC holoenzyme [2] | inhibition of DNA synthesis by S. aureus Pol C holoenzyme [3] |
| --- | --- | --- | --- | --- | --- |
| S. aureus Pol C peptide: C-terminal peptide of Staphylococcus aureus Pol C; DELGSLPNLPDKAQLSIFDM (SEQ ID NO: 13) (listed as Staphylococcus aureus) | binds | bound | inhibit DNA synthesis | inhibit DNA synthesis | inhibit DNA synthesis |
| S. pyogenes Pol C peptide: C-terminal residues of Streptococcus pyogenes Pol C; DEMGILGNMPEDNQLSLFDDFF (SEQ ID NO: 15) (Streptococcus pyogenes) | binds | bound | inhibit DNA synthesis | inhibit DNA synthesis | inhibit DNA synthesis |
